Laboratory results taken from the supplement of paper PMC10724198.
± gives the standard deviation of the averaged measurements.
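Further: PSI is a weighted mean of sequencing reads over stability bins, variants kept only with over 10 reads, mCherry proximal and sfGFP distal, peptide attached via GGGS linker.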

These sequences were tested on Saccharomyces cerevisiae (assay: protein stability index of tFT-peptide fusion (C-terminal peptide) (PSI (0-1 scale)); higher = more stable (slower turnover)). Settings: genetic background: cdc34-1; temperature: 37 C.
Method: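 MPS profiling in S. cerevisiae of the tFT-X12 degron library: putative degron peptides plus stable controls, 12 aa, fused to the C-terminus of a sfGFP-mCherry timer. Cells are FACS-sorted into 8 mCherry/sfGFP bins and deep-sequenced. PSI runs from 0 (unstable) to 1 (stable). Backgrounds are wild type, das1Δ and doa10Δ at 30 °C, and wild type, das1Δ, cdc34-1 and cdc53-1 at 37 °C; 2-3 technical replicates each.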
For SCLVLDYCFSLV, the protein stability index was 0.649 ± 0.037. SCYDYVILLQLS was tested, and the protein stability index was 0.506 ± 0.051. SFFFTLLICFLF gave a protein stability index of 0.161 ± 0.017. Work on SFLLGCCWLVLC yielded a protein stability index of 0.222 ± 0.04. Work on SFLLVWCLLPEI yielded a protein stability index of 0.364 ± 0.056. SFLVFLYFFMVF showed a protein stability index of 0.3637 ± 0.0027. Work on SGWGGGTWVKMG yielded a protein stability index of 0.537 ± 0.019. With SIQRKIRRMKEN the protein stability index was 0.559 ± 0.093. In the case of SIVDLFRLRSLS, the protein stability index is reported as 0.643 ± 0.022. With SLALLFSFLLFL the protein stability index was 0.504 ± 0.041. Work on SLFPHIFFFFFA yielded a protein stability index of 0.43487 ± 0.00035. Sequence SLICLSVGVLLR has a protein stability index of 0.128 ± 0.024. With SLSSSFQFSSPS the protein stability index was 0.701 ± 0.035. In the case of SPIGIFCFILCR, the protein stability index is reported as 0.0729 ± 0.011. With SPTQIPLWILAS the protein stability index was 0.258 ± 0.0095. SRGRVLRLLLLV showed a protein stability index of 0.303 ± 0.0055. SRRCGLFVFILF was tested, and the protein stability index was 0.387 ± 0.042. Work on SRSFFRRLLFCF yielded a protein stability index of 0.642 ± 0.033. For SSAPPTLHTRPS, the protein stability index was 0.642 ± 0.027. With SSRRVVLPLLVA the protein stability index was 0.336 ± 0.057. SVHKYGFIKEIN was tested, and the protein stability index was 0.732 ± 0.026. In the case of SVVLCRFVLRIF, the protein stability index is reported as 0.0423 ± 0.011. SVVWIRFVGVRV was tested, and the protein stability index was 0.472 ± 0.026. SWFNLLSILPRD showed a protein stability index of 0.699 ± 0.022. Work on SWIKRYEITCIL yielded a protein stability index of 0.543 ± 0.033. SWWISKWVGLNC was tested, and the protein stability index was 0.705 ± 0.0095. SYMWLVEVLLFI gave a protein stability index of 0.229 ± 0.0074. SYVFEFIVSVVF showed a protein stability index of 0.208 ± 0.016. In the case of SYVVVFVIFCVG, the protein stability index is reported as 0.1826 ± 0.00046. Sequence TDFICLLWLLHW has a protein stability index of 0.552 ± 0.035. For TFRVRRQKNRNM, the protein stability index was 0.628 ± 0.021. Work on TLFSFLLVFVFG yielded a protein stability index of 0.209 ± 0.0076. For TLLMVSMTVRPL, the protein stability index was 0.3005 ± 0.00077. In the case of TPPLPTTPTLNS, the protein stability index is reported as 0.641 ± 0.022. In the case of TPRQYVVSLSLC, the protein stability index is reported as 0.579 ± 0.027. TRVVSPNVILMC was tested, and the protein stability index was 0.6679 ± 0.00086. For TTSHFCVVLVSV, the protein stability index was 0.283 ± 0.042. For TVERKMYWQRWG, the protein stability index was 0.666 ± 0.029. TVGVGWVWVGVL showed a protein stability index of 0.5667 ± 0.00058. In the case of TVIVCCHLEVVY, the protein stability index is reported as 0.0776 ± 0.07. VAALLCWLHLYA gave a protein stability index of 0.602 ± 0.018. With VAFVVALSLIFL the protein stability index was 0.327 ± 0.019. Work on VALSILCVFFFF yielded a protein stability index of 0.253 ± 0.021. VARLGGRIGWEG showed a protein stability index of 0.694 ± 0.022. VCFCFLRFLSLL was tested, and the protein stability index was 0.543 ± 0.043. In the case of VCFFSSSCFLLV, the protein stability index is reported as 0.58 ± 0.026. With VCLVFVVRPCIR the protein stability index was 0.549 ± 0.021. With VCLWAIHLSGCW the protein stability index was 0.546 ± 0.046. VCNYRKLIWKHH gave a protein stability index of 0.52 ± 0.024. VCVLRWAVAPCR showed a protein stability index of 0.287 ± 0.0041. VCWCVVVLEFGL gave a protein stability index of 0.15 ± 0.049. For VECPWFCLGVLA, the protein stability index was 0.336 ± 0.027. VERKLMTIYIKI showed a protein stability index of 0.6106 ± 0.0052. Sequence VFAFVVFLHFEC has a protein stability index of 0.188 ± 0.015. VFFCLFWFFCSF gave a protein stability index of 0.54 ± 0.009. In the case of VFFVTSCWVFRG, the protein stability index is reported as 0.416 ± 0.018. With VFGFSLLTLLVL the protein stability index was 0.441 ± 0.0078. In the case of VFRRWGLIGVIV, the protein stability index is reported as 0.306 ± 0.026. Sequence VFSGGGFFLKVV has a protein stability index of 0.67453 ± 9.2e-05. VFSVSVLFLFFH showed a protein stability index of 0.286 ± 0.0084. Work on VFVLFCAFVRAL yielded a protein stability index of 0.212 ± 0.025. With VFVLFLRAVACR the protein stability index was 0.0227 ± 0.0013. With VFVMVLCALFYF the protein stability index was 0.248 ± 0.034. Work on VFYRPFFVLFFV yielded a protein stability index of 0.246 ± 0.026. In the case of VGDVVWFGVGAG, the protein stability index is reported as 0.733 ± 0.033. VGEQEVVGIGGV was tested, and the protein stability index was 0.674 ± 0.039. VGGGCVVVVRWG gave a protein stability index of 0.589 ± 0.044. VGLWCWSFVLVW gave a protein stability index of 0.0589 ± 0.018. In the case of VGRVIVIVVAGV, the protein stability index is reported as 0.329 ± 0.012. Sequence VGVCGSSGRVGG has a protein stability index of 0.688 ± 0.03. VGVIGWGGLGVG gave a protein stability index of 0.486 ± 0.048. Work on VHGWRPLLFHTR yielded a protein stability index of 0.648 ± 0.032. In the case of VHTAIFTSWRRL, the protein stability index is reported as 0.696 ± 0.048. For VIGLLSYFLVYL, the protein stability index was 0.498 ± 0.061. With VIRSIVSAYMIC the protein stability index was 0.552 ± 0.043. VISGFVLVFRVR gave a protein stability index of 0.509 ± 0.0038. VKGYISLLLVLI gave a protein stability index of 0.269 ± 0.01. VLAARVVLLRCR gave a protein stability index of 0.207 ± 0.0095.

Same assay, conditions: genetic background: cdc53-1; temperature: 37 C
Sequence SCLVLDYCFSLV has a protein stability index of 0.631 ± 0.012. SCYDYVILLQLS showed a protein stability index of 0.65547 ± 0.00031. Sequence SFFFTLLICFLF has a protein stability index of 0.107 ± 0.0062. Work on SFLLGCCWLVLC yielded a protein stability index of 0.309 ± 0.0045. SFLLVWCLLPEI gave a protein stability index of 0.479 ± 0.096. SFLVFLYFFMVF showed a protein stability index of 0.429 ± 0.058. Work on SGWGGGTWVKMG yielded a protein stability index of 0.721 ± 0.046. With SIQRKIRRMKEN the protein stability index was 0.732 ± 0.046. In the case of SIVDLFRLRSLS, the protein stability index is reported as 0.722 ± 0.016. Sequence SLALLFSFLLFL has a protein stability index of 0.404 ± 0.028. Work on SLFPHIFFFFFA yielded a protein stability index of 0.467 ± 0.015. For SLICLSVGVLLR, the protein stability index was 0.181 ± 0.061. With SLSSSFQFSSPS the protein stability index was 0.7506 ± 0.0045. Work on SPIGIFCFILCR yielded a protein stability index of 0.0462 ± 0.023. For SPTQIPLWILAS, the protein stability index was 0.394 ± 0.04. Work on SRGRVLRLLLLV yielded a protein stability index of 0.428 ± 0.013. Work on SRRCGLFVFILF yielded a protein stability index of 0.378 ± 0.028. SRSFFRRLLFCF gave a protein stability index of 0.7705 ± 0.0056. In the case of SSAPPTLHTRPS, the protein stability index is reported as 0.7092 ± 0.0049. Work on SSRRVVLPLLVA yielded a protein stability index of 0.402 ± 0.0094. With SVHKYGFIKEIN the protein stability index was 0.70852 ± 0.00021. Work on SVVLCRFVLRIF yielded a protein stability index of 0.109 ± 0.055. SVVWIRFVGVRV was tested, and the protein stability index was 0.507 ± 0.022. In the case of SWFNLLSILPRD, the protein stability index is reported as 0.7053 ± 0.0039. For SWIKRYEITCIL, the protein stability index was 0.568 ± 0.026. Work on SWWISKWVGLNC yielded a protein stability index of 0.778 ± 0.01. In the case of SYMWLVEVLLFI, the protein stability index is reported as 0.306 ± 0.0063. Work on SYVFEFIVSVVF yielded a protein stability index of 0.347 ± 0.011. SYVVVFVIFCVG gave a protein stability index of 0.281 ± 0.028. TDFICLLWLLHW gave a protein stability index of 0.535 ± 0.058. In the case of TFRVRRQKNRNM, the protein stability index is reported as 0.692 ± 0.039. TLFSFLLVFVFG was tested, and the protein stability index was 0.315 ± 0.0035. Work on TLLMVSMTVRPL yielded a protein stability index of 0.379 ± 0.02. TPPLPTTPTLNS showed a protein stability index of 0.713 ± 0.022. Sequence TPRQYVVSLSLC has a protein stability index of 0.657 ± 0.033. In the case of TRVVSPNVILMC, the protein stability index is reported as 0.7417 ± 0.0073. TTSHFCVVLVSV was tested, and the protein stability index was 0.307 ± 0.016. TVERKMYWQRWG showed a protein stability index of 0.745 ± 0.025. TVGVGWVWVGVL showed a protein stability index of 0.611 ± 0.026. With TVIVCCHLEVVY the protein stability index was 0.0367 ± 0.024. VAALLCWLHLYA gave a protein stability index of 0.639 ± 0.02. For VAFVVALSLIFL, the protein stability index was 0.443 ± 0.014. For VALSILCVFFFF, the protein stability index was 0.357 ± 0.01. With VARLGGRIGWEG the protein stability index was 0.736 ± 0.019. For VCFCFLRFLSLL, the protein stability index was 0.685 ± 0.014. In the case of VCFFSSSCFLLV, the protein stability index is reported as 0.607 ± 0.015. VCLVFVVRPCIR gave a protein stability index of 0.578 ± 0.023. In the case of VCLWAIHLSGCW, the protein stability index is reported as 0.601 ± 0.048. In the case of VCNYRKLIWKHH, the protein stability index is reported as 0.661 ± 0.047. VCVLRWAVAPCR was tested, and the protein stability index was 0.342 ± 0.0038. Sequence VCWCVVVLEFGL has a protein stability index of 0.367 ± 0.15. For VECPWFCLGVLA, the protein stability index was 0.318 ± 0.018. VERKLMTIYIKI showed a protein stability index of 0.6479 ± 0.003. In the case of VFAFVVFLHFEC, the protein stability index is reported as 0.296 ± 0.048. Sequence VFFCLFWFFCSF has a protein stability index of 0.571 ± 0.057. In the case of VFFVTSCWVFRG, the protein stability index is reported as 0.574 ± 0.019. For VFGFSLLTLLVL, the protein stability index was 0.511 ± 0.025. For VFRRWGLIGVIV, the protein stability index was 0.326 ± 0.022. With VFSGGGFFLKVV the protein stability index was 0.765 ± 0.01. VFSVSVLFLFFH gave a protein stability index of 0.392 ± 0.0056. With VFVLFCAFVRAL the protein stability index was 0.413 ± 0.032. VFVLFLRAVACR showed a protein stability index of 0.0336 ± 0.0004. VFVMVLCALFYF was tested, and the protein stability index was 0.282 ± 0.04. With VFYRPFFVLFFV the protein stability index was 0.228 ± 0.004. For VGDVVWFGVGAG, the protein stability index was 0.7757 ± 0.0042. VGEQEVVGIGGV was tested, and the protein stability index was 0.7077 ± 0.0065. VGGGCVVVVRWG gave a protein stability index of 0.615 ± 0.02. Work on VGLWCWSFVLVW yielded a protein stability index of 0.0934 ± 0.034. Sequence VGRVIVIVVAGV has a protein stability index of 0.395 ± 0.016. For VGVCGSSGRVGG, the protein stability index was 0.7314 ± 0.0042. VGVIGWGGLGVG showed a protein stability index of 0.5527 ± 0.0051. Work on VHGWRPLLFHTR yielded a protein stability index of 0.668 ± 0.0099. With VHTAIFTSWRRL the protein stability index was 0.738 ± 0.018. For VIGLLSYFLVYL, the protein stability index was 0.513 ± 0.0062. Work on VIRSIVSAYMIC yielded a protein stability index of 0.649 ± 0.013. With VISGFVLVFRVR the protein stability index was 0.543 ± 0.029. With VKGYISLLLVLI the protein stability index was 0.332 ± 0.012. In the case of VLAARVVLLRCR, the protein stability index is reported as 0.216 ± 0.033.
